Target: amyloid beta (Aβ, measured as Aβ40) in conditioned medium from Tg2576 neuronal cultures (TgCM) (human and murine) (UniProt P05067)
Assay: immunodepletion of TgCM with 9 µg 6E10 and Protein G-Sepharose beads; Aβ40 ELISA of the supernatant (TgCM about 12 nM Aβ40 before depletion)

Chain of amyloid beta (Aβ, measured as Aβ40) in conditioned medium from Tg2576 neuronal cultures (TgCM) (human and murine) (P05067 672-711 limits assumed): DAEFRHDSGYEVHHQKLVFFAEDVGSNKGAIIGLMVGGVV

Aβ40 left in the medium after immunodepletion: 0.1 nM
Substance: 6E10 (Signet), a high-titer mouse monoclonal Aβ antibody reactive to amino acid residue 1-16 of beta amyloid
